These results are taken from patent US7259254B2, “Mutants and assay system to identify USP/RXR ligands” (University of Kentucky Research Foundation, priority 2002, dated 2007).

Experiment [1] has as its system 4DR12Core reporter promoter in Sf9 cells (endogenous USP). Briefly: Dominant negative activity of transfected dUSP mutants on methyl epoxyfarnesoate activation of 4DR12Core reporter in Sf9 cells. Type of experiment: cell-based, Spodoptera frugiperda. The settings on record: receptor overexpressed in Sf9 cells, 75 μm methyl epoxyfarnesoate. The text has this:
In another embodiment, mutant nuclear hormone receptors disclosed herein comprise amino acid substitutions that render the mutant to act as a “dominant negative.” Dominant negative proteins exploit protein-protein interactions, i.e., the interactions between a mutated protein produced by a transgene and the related native protein inside the cell. The mutant protein forms a dimer with an integral part of a wild type endogenous protein molecule. The mutant protein interacts with a whole range of native compatible gene products. Preferably, the mutant homodimerizes or heterodimerizes with an endogenous wild type partner to form a complex following ligand or independent of ligand binding. Preferably, as opposed to a complex of wild type monomers, a complex of a mutant and its endogenous wild type partner will be incapable of initiating transcription at a hormone receptor response reporter gene. Assays for determining dominant negative activity may be found in Examples 6 and 7 as well as FIG. 4.
Spodoptera frugiperda cell line, Sf9, was maintained and transfected as described previously Jones et al (1998) Biochem. J. 335, 79-84; Jones et al. (2000) Biochem. J. 346, 233-240. As an internal control to compare activities of different constructs, 0.3 μg of a constituitive heat-shock promoter-driven β-galactosidase gene was cotransfected. To study the role of USP in activation of the nuclear hormone receptor response element fused to core promoter in methyl epoxyfarnesoate-treated cells, cloned D. melangaster USP (dUSP) cDNA and its derivatives containing mutations in the ligand-binding pocket were cotransfected with the reporter and internal control plasmids. […] After 48 h of the treatment, the cells were harvested and the activity of the luciferase reporter was measured using a luciferase assay kit (Promega) in a multipurpose scintillation counter (Beckman, Fullerton, Calif.). β-Galactosidase activity was measured using chlorophenol red-[…] monosodium (CPRG; Roche Molecular Biochemicals) as a colorimetric substrate.
His-tagged dUSP dominant negative double mutant Cys472Ala/His475Leu (C472A/H475L) was over expressed in methyl epoxyfarnesoate-treated Sf9 cells that were cotransfected with the 4DR12Core reporter plasmid.
Under the model that overexpression of the C472A/H475L double mutant competed with endogenous USP in the pathways for transduction of the exogenous methyl epoxyfarnesoate signal, the level of effect of the double mutant ought to be dependent on its dose. […] This background of the blocked activation pathway was used to test whether activation by methyl epoxyfarnesoate treatment was actually dependent on the presence of wild-type USP. […] Again, over the range of the monotonic restoration of methyl epoxyfarnesoate-activated transcription, there was no effect of the transfected wild-type dUSP on the basal level of transcription in EtOH-treated controls.

The test system of another experiment is DR12 motif. Briefly: Electrophoretic mobility shift assay of recombinant dUSP on DR12 probe. It counts as binding. To be noted: 500 nm His-tagged receptor. The source says: Nuclear extracts were isolated from Sf9 cells as previously described Jones et al. (2001) Insect Biochem. Mol. Biol. 32, 33-49; Jones et al (1998) Biochem. J. 335, 79-84; 79-84; Jones et al. (2000) Biochem. J. 346, 233-240. For the DR12 probe, the double stranded DR12 oligonucleotide (sequence as shown above) was 5′ end-labelled with ^32P by T4 polynucleotide kinase (New England Biolabs Inc.), and then purified from a 20% native polyacrylamide gel. The same double stranded DR12 oligonucleotide was used in 100-fold excess as a self competitor. For the 4DR12Core probe, the 4DR12Core sequence was liberated from the vector as a 148-bp ClaI/HindIII fragment, and was 5′ end-labelled with ^32P and purified. The same, unlabelled fragment was used at 100-fold excess as a self competitor. As a negative control for specificity in gel shifts, the 36 bp BglII/KpnI polylinker region fragment of the pGL3 vector was liberated and recovered from low melting point agarose gels and used as a 100 nonself competitor (sequence: […], SEQ ID NO: 17). […]
In addition, both receptor preparations bound to the probe similarly in part as monomer and in part as homodimer. […] Thus, any difference detected in ligand binding of the two receptors is most reasonably inferred as arising from differences in the architecture inside the cavity of the ligand-binding pocket due to the C472A/H475L point mutations.

Entries after “also recorded” stand apart in the source; their conditions may differ.

B1: C472A/H475L: dUSP ligand-binding pocket double mutant, alanine at 472 and leucine at 475 (protein)
chain: MDNCDQDASFRLSHIKEEVKPDISQLNDSNNSSFSPKAESPVPFMQAMSMVHVLPGSNSASSNNNSAGDAQMAQAPNSAGGSAAAAVQQQYPPNHPLSGSKHLCSICGDRASGKHYGVYSCEGCKGFFKRTVRKDLTYACRENRNCIIDKRQRNRCQYCRYQKCLTCGMKREAVQEERQRGARNAAGRLSASGGGSSGPGSVGGSSSQGGGGGGGVSGGMGSGNGSDDFMTNSVSRDFSIERIIEAEQRAETQCGDRALTFLRVGPYSTVQPDYKGAVSALCQVVNKQLFQMVEYARMMPHFAQVPLDDQVILLKAAWIELLIANVAWCSIVSLDDGGAGGGGGGLGHDGSFERRSPGLQPQQLFLNQSFSYHRNSAIKAGVSAIFDRILSELSVKMKRLNLDRRELSCLKAIILYNPDIRGIKSRAEIEMCREKVYACLDEHCRLEHPGDDGRFAQLLLRLPALRSISLKAQDLLFLFRITSDRPLEELFLEQLEAPPPPGLAMKLE
B1: the “dominant negative effect on methyl epoxyfarnesoate-induced activation of 4DR12Core promoter” value in experiment [1] is “distinct suppression; also recorded: progressive suppression”. Further, the “binding to DR12 motif in gel shift” value in the experiment on DR12 motif is “similarly bound to a DR12 motif”.
